In patent US20030158387A1 (PHARIS BIOTEC, published 2003):
*: point of attachment. Nonanoyl = CCCCCCCCC(=O)*

T1: chemokine receptor CCR3 (UniProt P51677 1-355, limits assumed)
T1 sequence (looked up): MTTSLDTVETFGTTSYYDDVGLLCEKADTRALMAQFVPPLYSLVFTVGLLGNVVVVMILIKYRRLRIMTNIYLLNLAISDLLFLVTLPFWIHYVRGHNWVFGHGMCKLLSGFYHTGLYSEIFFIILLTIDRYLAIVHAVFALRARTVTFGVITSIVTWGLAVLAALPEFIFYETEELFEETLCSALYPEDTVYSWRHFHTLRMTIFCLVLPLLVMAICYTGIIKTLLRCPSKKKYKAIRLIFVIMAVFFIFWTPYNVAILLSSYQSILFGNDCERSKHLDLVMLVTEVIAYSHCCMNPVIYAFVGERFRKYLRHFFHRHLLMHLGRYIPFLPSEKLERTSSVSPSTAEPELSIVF

B1: processed human chemokine PHC-1 (HCC-1[9-74]) (ligand)
chain: GPYHPSECCFTYTTYKIPRQRIMDYYETNSQCSKPGIVFITKRGHSVCTNPSDKWVQDYIKDMKEN
notes: Purified from human hemofiltrate or made by tryptic digestion of HCC-1 (1-74)
B2: NNY-HCC-1[10-74] (nonanoyl-HCC-1[10-74]) (ligand)
chain: Nonanoyl-PYHPSECCFTYTTYKIPRQRIMDYYETNSQCSKPGIVFITKRGHSVCTNPSDKWVQDYIKDMKEN
modifications: ends and bridges not checked
notes: Chemokine compound analog, synthetic
B3: HCC-1[10-74] (ligand)
chain: PYHPSECCFTYTTYKIPRQRIMDYYETNSQCSKPGIVFITKRGHSVCTNPSDKWVQDYIKDMKEN
notes: Synthetic, oxidatively folded
B4: RANTES (ligand, UniProt P13501 24-91, looked up)
chain: SPYSSDTTPCCFAYIARPLPRAHIKEYFYTSGKCSNPAVVFVTRKNRQVCANPEKKWVREYINSLEMS
modifications: ends and bridges not checked; also: 125I-labelled where used as tracer, unlabelled in functional assays
B5: HCC-1[12-74] (ligand)
chemokine chain: HPSECCFTYTTYKIPRQRIMDYYETNSQCSKPGIVFITKRGHSVCTNPSDKWVQDYIKDMKEN
notes: Not in the list MOLECULES; also called PHC-2
B6: HCC-1[8-74] (ligand)
chain: RGPYHPSECCFTYTTYKIPRQRIMDYYETNSQCSKPGIVFITKRGHSVCTNPSDKWVQDYIKDMKEN
notes: Synthetic, oxidatively folded
B7: HCC-1, residues 6-74 (ligand)
chain: SSRGPYHPSECCFTYTTYKIPRQRIMDYYETNSQCSKPGIVFITKRGHSVCTNPSDKWVQDYIKDMKEN
notes: also called HCC-1[6-74]
B8: HCC-1[7-74] (ligand)
chain: SRGPYHPSECCFTYTTYKIPRQRIMDYYETNSQCSKPGIVFITKRGHSVCTNPSDKWVQDYIKDMKEN
notes: Synthetic, oxidatively folded
B9: HCC-1[11-74] (ligand)
chain: YHPSECCFTYTTYKIPRQRIMDYYETNSQCSKPGIVFITKRGHSVCTNPSDKWVQDYIKDMKEN
notes: Synthetic, oxidatively folded

These binders were tested against T2, chemokine receptor 5 (CCR5) (human, UniProt P51681 1-352) (assay: competition with 125I-MIP-1 alpha, membranes of CHO-K1 cells expressing CCR5, filtration, one site competition model; 125I-MIP 1-alpha tracer, CCR5 membranes).
T2 construct: whole, on cells
T2 sequence (P51681 whole entry): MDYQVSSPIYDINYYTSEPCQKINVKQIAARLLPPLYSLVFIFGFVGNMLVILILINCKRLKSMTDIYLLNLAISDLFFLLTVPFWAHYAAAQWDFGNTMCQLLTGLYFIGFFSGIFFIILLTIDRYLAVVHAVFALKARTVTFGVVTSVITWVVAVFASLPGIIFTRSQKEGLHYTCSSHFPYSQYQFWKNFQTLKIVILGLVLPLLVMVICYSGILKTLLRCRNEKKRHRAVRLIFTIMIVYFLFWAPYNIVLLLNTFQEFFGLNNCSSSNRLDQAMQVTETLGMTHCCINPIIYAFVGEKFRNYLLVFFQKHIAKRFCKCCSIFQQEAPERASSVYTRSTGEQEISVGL
Procedure: (§1) For determination of its binding properties, CHO-K1 cells were used which were stably transfected with the chemokine receptors CCR1, CCR3, CCR5. Therefore, crude membrane extracts prepared from the CHO-K1 cell lines expressing the various GPC were used in radioligand binding assays. Competition binding assays were performed in Minisorp tubes (Nunc, Roskilde, Denmark) in a total volume of 100 μl containing 0.11 nM iodinated ligand as tracer, variable concentrations of competitors and defined amount of membranes. Total binding was measured in the absence of competitor and non-specific binding was measured with a 100-fold excess, of unlabelled ligand. Samples were incubated for 90 minutes at 25° C. then filtered through GF/B filters presoaked in 0.3% polyethylenenimine. Filters were counted in a gamma scintillation counter (Packard). Binding parameters were determined with the PRISM software (Graphpad software, San Diego, Calif.) using non-linear regression applied to a one site competition model.

| Binder | IC50 |
| --- | --- |
| B1 | 0.04 nM |

The binders below were run against T2, chemokine receptor 5 (CCR5) (assay: cell-based or functional assay).

| Binder | EC50 (read off the curve) |
| --- | --- |
| B1 | ~7 nM |
| B2 | ~1 nM |
| B3 | ~6 nM |
| B4 | ~10 nM |

The binders below were run against T2, chemokine receptor 5 (CCR5) (assay: competition with 125I-MIP-1 alpha for binding to CCR5).
Procedure: as §1

| Binder | Ki |
| --- | --- |
| B1 | 0.04 nM |

What follows are binders tested against T1, chemokine receptor CCR3 (assay: cell-based or functional assay).

| Binder | EC50 of receptor activation (aequorin assay) |
| --- | --- |
| B1 | 78 nM |

The binders below were run against T1, chemokine receptor CCR3 (assay: competition with 125I-Eotaxin, membranes of CHO-K1 cells expressing CCR3, filtration, one site competition model; 125I-Eotaxin tracer, CCR3 membranes).
Procedure: as §1

| Binder | IC50 |
| --- | --- |
| B1 | 2.7 nM |

These binders were tested against T2, chemokine receptor 5 (CCR5) (assay: competition radioligand binding, membranes of CHO-K1 cells expressing CCR5, tracer [125I]-MIP-1 beta; mean ± SEM).

| Binder | IC50 |
| --- | --- |
| B5 | 4.29 nM |
| B6 | 5.9 nM |
| B7 | 21.6 nM |
| B1 | 0.0961 nM |
| B8 | 7.72 nM |
| B2 | 0.0343 nM |
| B3 | 0.065 nM |
| B9 | 1.2 nM |

The binders below were run against T2, chemokine receptor 5 (CCR5) (assay: competition radioligand binding, membranes of CHO-K1 cells expressing CCR5, tracer [125I]-MIP-1 beta).

| Binder | IC50 (read off the curve) |
| --- | --- |
| B1 | ~0.1 nM |
| B2 | ~0.04 nM |
| B3 | ~0.1 nM |

What follows are binders tested against T1, chemokine receptor CCR3 (assay: competition with 125I-Eotaxin for binding to CCR3).
Procedure: as §1

| Binder | Ki |
| --- | --- |
| B1 | 2.7 nM |

Target: T2, chemokine receptor 5 (CCR5)
Assay: cell-based or functional assay
Remark: another data set of the same source

| Binder | EC50 (read off the curve) |
| --- | --- |
| B1 | ~7 nM |
| B3 | ~6 nM |
| B4 | ~10 nM |

Target: T2, chemokine receptor 5 (CCR5)
Assay: cell-based or functional assay
Remark: another data set of the same source

| Binder | EC50 (aequorin luminescence, CHO-K1 cells expressing CCR5) |
| --- | --- |
| B6 | 177 nM |
| B7 | 402 nM |
| B1 | 6.45 nM |
| B8 | 165 nM |
| B2 | 0.453 nM |
| B3 | 3.48 nM |
| B9 | 224 nM |
| B4 | 8.48 nM |

Target: T2, chemokine receptor 5 (CCR5)
Assay: competition radioligand binding, membranes of CHO-K1 cells expressing CCR5, tracer [125I]-MIP-1 beta
Remark: another data set of the same source

| Binder | IC50 (read off the curve) |
| --- | --- |
| B7 | ~20 nM |
| B1 | ~0.1 nM |
| B3 | ~0.1 nM |
